Experimental data taken from PMC4800795.

Tests used:
[1] = target: T1, endogenous IRF3 of HEK293T cells (human (endogenous in HEK293T)), Q14653; test: native gel or EMSA; native PAGE (deoxycholate in the cathode buffer, on ice) of HEK293T lysates, Western blot; cells stimulated with poly(I·C) 10 μg/ml for 12 h, with or without Flag-FAF1; conditions: remark: other sources report otherwise
T1 chain: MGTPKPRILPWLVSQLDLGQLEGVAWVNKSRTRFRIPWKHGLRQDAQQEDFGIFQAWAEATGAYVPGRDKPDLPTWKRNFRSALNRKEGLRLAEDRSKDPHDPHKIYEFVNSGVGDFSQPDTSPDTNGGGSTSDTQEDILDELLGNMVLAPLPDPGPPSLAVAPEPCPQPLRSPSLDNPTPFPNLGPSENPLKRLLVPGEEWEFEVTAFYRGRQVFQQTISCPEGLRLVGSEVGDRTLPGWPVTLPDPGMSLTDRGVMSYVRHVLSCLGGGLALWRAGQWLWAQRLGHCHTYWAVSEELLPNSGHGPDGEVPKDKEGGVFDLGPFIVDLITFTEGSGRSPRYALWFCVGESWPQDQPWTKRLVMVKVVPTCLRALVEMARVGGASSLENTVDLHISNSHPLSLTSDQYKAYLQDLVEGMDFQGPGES

[2] = target: T2, GFP-tagged wild-type IRF3 (IRF3-WT-GFP), in HEK293T cells, Q14653; test: as above; conditions: remark: other sources report otherwise
T2 chain: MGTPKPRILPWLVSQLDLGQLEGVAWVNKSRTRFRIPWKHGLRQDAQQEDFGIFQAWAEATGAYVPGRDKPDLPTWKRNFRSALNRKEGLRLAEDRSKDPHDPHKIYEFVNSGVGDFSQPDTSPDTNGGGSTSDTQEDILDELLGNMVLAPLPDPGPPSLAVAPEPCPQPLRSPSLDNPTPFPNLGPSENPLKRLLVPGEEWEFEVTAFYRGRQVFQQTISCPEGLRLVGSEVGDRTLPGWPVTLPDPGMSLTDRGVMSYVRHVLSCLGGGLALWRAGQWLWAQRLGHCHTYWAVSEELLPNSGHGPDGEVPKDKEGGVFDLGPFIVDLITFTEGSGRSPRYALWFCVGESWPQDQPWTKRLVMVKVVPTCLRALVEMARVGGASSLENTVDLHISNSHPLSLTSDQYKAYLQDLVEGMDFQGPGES

B1: endogenous IRF3 of HEK293T cells, Q14653 1-427 (natural protein)
chain: MGTPKPRILPWLVSQLDLGQLEGVAWVNKSRTRFRIPWKHGLRQDAQQEDFGIFQAWAEATGAYVPGRDKPDLPTWKRNFRSALNRKEGLRLAEDRSKDPHDPHKIYEFVNSGVGDFSQPDTSPDTNGGGSTSDTQEDILDELLGNMVLAPLPDPGPPSLAVAPEPCPQPLRSPSLDNPTPFPNLGPSENPLKRLLVPGEEWEFEVTAFYRGRQVFQQTISCPEGLRLVGSEVGDRTLPGWPVTLPDPGMSLTDRGVMSYVRHVLSCLGGGLALWRAGQWLWAQRLGHCHTYWAVSEELLPNSGHGPDGEVPKDKEGGVFDLGPFIVDLITFTEGSGRSPRYALWFCVGESWPQDQPWTKRLVMVKVVPTCLRALVEMARVGGASSLENTVDLHISNSHPLSLTSDQYKAYLQDLVEGMDFQGPGES
[1]
  stoichiometry N: 2

B2: GFP-tagged wild-type IRF3 (IRF3-WT-GFP), in HEK293T cells, Q14653 1-427 (natural protein)
chain: MGTPKPRILPWLVSQLDLGQLEGVAWVNKSRTRFRIPWKHGLRQDAQQEDFGIFQAWAEATGAYVPGRDKPDLPTWKRNFRSALNRKEGLRLAEDRSKDPHDPHKIYEFVNSGVGDFSQPDTSPDTNGGGSTSDTQEDILDELLGNMVLAPLPDPGPPSLAVAPEPCPQPLRSPSLDNPTPFPNLGPSENPLKRLLVPGEEWEFEVTAFYRGRQVFQQTISCPEGLRLVGSEVGDRTLPGWPVTLPDPGMSLTDRGVMSYVRHVLSCLGGGLALWRAGQWLWAQRLGHCHTYWAVSEELLPNSGHGPDGEVPKDKEGGVFDLGPFIVDLITFTEGSGRSPRYALWFCVGESWPQDQPWTKRLVMVKVVPTCLRALVEMARVGGASSLENTVDLHISNSHPLSLTSDQYKAYLQDLVEGMDFQGPGES
[2]
  stoichiometry N: 2
